This experiment addresses streptavidin (UniProt P22629). The experiment is described as follows: recovery of cells on streptavidin coated magnetic beads (Dynal).

Sequence of streptavidin (P22629 37-163 limits assumed): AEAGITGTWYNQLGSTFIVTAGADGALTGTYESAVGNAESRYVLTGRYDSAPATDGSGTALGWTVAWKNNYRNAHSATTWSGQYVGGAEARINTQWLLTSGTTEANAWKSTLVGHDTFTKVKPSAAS

As to “Ramos IgM (unselected / wild-type Ramos cells, surface and secreted IgM) (antibody)”, the proportion of cells which bind to the beads is 0.02%.

The record behind these values is patent US20080193979A1.
